Results reported in paper PMC4496704.

Legend:
[1] = biological target: Recombinant mouse Hsp70 (70-kDa heat shock protein), wild type (mouse) (UniProt Q61696); experiment: cross-linking; without sulfatide (with or without lactosylceramide); 0.1 μM protein in PBS, 0.1% glutaraldehyde 10 min 30 °C, SDS-PAGE and Western blot
[2] = biological target: Hsp-N (ATPase domain of mouse Hsp70; lacks the peptide-binding domain) (mouse); experiment: as above

## Recombinant mouse Hsp70 (70-kDa heat shock protein), wild type (from UniProt Q61696 1-641) (natural protein)
[1]
  stoichiometry N: 2

## Hsp-N (ATPase domain of mouse Hsp70; lacks the peptide-binding domain) (domain or fragment)
[2]
  stoichiometry N: 2
